T1: cynomolgus monkey MST1R with N-terminal Flag tag, expressed on HEK293T cells (cynomolgus monkey, UniProt Q04912 27-1400 (human entry))
T1 construct: ORF cloned excluding the signal peptide region; also called cynomolgus MST1R; not shown: N-terminal Flag tag from vector pFLAG-myc-CMV-19 (Sigma)
T1 chain: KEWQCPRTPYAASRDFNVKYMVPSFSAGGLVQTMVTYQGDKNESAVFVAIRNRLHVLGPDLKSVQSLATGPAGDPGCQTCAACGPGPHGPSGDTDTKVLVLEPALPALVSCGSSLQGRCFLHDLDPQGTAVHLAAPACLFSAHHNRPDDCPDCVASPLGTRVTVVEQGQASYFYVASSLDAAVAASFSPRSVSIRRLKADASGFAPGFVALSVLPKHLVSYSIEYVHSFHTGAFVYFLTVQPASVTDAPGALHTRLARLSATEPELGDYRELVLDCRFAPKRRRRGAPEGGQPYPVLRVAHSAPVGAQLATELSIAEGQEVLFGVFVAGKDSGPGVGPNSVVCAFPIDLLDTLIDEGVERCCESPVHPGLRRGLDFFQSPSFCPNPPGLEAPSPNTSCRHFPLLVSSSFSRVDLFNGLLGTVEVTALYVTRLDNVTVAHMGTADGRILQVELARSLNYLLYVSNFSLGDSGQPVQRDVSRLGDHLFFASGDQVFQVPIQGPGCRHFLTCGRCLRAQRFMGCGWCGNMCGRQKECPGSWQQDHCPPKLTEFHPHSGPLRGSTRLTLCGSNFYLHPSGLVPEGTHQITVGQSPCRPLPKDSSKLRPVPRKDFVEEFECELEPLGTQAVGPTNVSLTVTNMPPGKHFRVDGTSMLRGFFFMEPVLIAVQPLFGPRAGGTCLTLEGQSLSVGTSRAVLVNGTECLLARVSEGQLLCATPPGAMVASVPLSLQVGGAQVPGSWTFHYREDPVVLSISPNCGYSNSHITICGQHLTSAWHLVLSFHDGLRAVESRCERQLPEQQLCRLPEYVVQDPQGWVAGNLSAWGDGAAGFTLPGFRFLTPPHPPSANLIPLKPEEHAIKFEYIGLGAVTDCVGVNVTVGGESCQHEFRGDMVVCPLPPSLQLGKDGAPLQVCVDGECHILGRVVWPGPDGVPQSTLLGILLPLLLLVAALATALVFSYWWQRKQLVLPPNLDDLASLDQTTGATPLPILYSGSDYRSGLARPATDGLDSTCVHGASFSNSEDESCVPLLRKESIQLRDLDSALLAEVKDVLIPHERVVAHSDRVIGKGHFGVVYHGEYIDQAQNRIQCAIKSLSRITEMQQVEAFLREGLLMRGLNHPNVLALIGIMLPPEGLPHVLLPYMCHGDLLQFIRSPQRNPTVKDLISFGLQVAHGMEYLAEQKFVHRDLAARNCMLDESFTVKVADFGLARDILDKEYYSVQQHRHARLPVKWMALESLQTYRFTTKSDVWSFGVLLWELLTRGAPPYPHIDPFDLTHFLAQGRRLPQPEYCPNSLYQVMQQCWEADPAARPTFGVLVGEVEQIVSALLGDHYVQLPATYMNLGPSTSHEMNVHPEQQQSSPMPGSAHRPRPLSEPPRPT

T2: recombinant MST1R-Fc fusion protein (containing 25-571 amino acid sequence of human MST1R, R&D) (human, UniProt Q04912 25-571)
T2 construct: Bought from R&D systems; also called immobilized recombinant human MST1R; not shown: Fc part of the bought fusion protein (R&D systems)
T2 chain: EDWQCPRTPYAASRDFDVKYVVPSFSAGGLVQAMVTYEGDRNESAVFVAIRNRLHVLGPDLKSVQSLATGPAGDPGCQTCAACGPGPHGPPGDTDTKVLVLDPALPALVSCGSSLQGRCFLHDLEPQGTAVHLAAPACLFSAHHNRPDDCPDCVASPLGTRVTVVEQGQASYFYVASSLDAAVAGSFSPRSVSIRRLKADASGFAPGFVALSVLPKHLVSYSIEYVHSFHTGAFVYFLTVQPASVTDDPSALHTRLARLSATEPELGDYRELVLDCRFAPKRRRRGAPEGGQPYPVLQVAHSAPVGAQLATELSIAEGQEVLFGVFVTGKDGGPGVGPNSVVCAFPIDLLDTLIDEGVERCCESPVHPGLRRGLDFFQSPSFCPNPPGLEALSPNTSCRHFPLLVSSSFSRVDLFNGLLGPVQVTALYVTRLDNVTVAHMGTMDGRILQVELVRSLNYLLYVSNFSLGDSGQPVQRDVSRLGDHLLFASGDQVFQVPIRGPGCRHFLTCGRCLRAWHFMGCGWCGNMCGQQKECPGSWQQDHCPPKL


What was measured:
[1] = target: T1, cynomolgus monkey MST1R with N-terminal …; assay: flow cytometry on transfected HEK293T cells, 2 ug/ml IgG1
Method: Cells (5×10⁵ cells/well) were incubated with Fab or IgG antibodies at the indicated concentrations in 50 μl FACS buffer (PBS, 5% FCS) for 60 min at 4° C. in round bottom 96-well culture plates (Corning). Cells were washed twice and then incubated with Fluorescein Isothiocyanate (FITC) conjugated detection antibody for 30 min at 4° C. Cells were washed again, resuspended in 0.3 ml FACS buffer and then analyzed by flow cytometry in a Cytomics FC500 (Beckman Coulter, Inc.). Data were analysed via FlowJo software (Tomy digital biology Co., Ltd.). Polyclonal goat anti-hMSP R IgG (R&D systems) or anti-FLAG M2 antibody (Sigma) was used as a positive control and MOR03207 (anti-lysozyme) antibody was used as a negative control.
FACS-analysis of MST1R ortholog-expressing cells: Human MST1R (cDNA nucleotide sequence is shown as GenBank Accession No: NM_{—}002447.2), cynomolgus monkey MST1R and mouse MST1R (cDNA nucleotide sequence is shown as GeneBank Accession No: NM_{—}009074.1) expression vector containing N-terminal Flag tag (pFLAG-myc-CMV-19, Sigma) were constructed. cDNA encoding cynomolgus monkey MST1R was amplified by PCR using cynomolgus monkey stomach cDNA as a template with forward and reverse primers having nucleotide sequences of SEQ ID NO: 34 and 35, respectively. By sequencing analysis of PCR product, the cynomolgus MST1R ORF nucleotide sequence was identified as shown in SEQ ID NO: 36. The corresponding amino acid sequence was shown in SEQ ID NO: 37. Then human, cynomolgus monkey and mouse MST1R ORF cDNA, excluding signal peptide regions, were amplified using respective forward and reverse primers having nucleotide sequences of SEQ ID NO: 38 and 39 (human), 40 and 41 (cynomolgus monkey), and 42 and 43 (mouse) with appropriate cloning sites and then cloned into pFLAG-myc-CMV-19. An amplified human MST1R fragment encodes amino acids corresponding to GenBank Accession No: NP_{—}002438.2 (SEQ ID NO: 45). A Mouse MST1R fragment encodes amino acids corresponding to GenBank Accession No: NP_{—}033100.1 (SEQ ID NO: 47) except for those amino acid differences at positions: 688 (Leu to Pro), 713 (Ile to Val), 714 (Ala to Gly) and 719 (Ala to Val). These expression vectors were transfected into HEK293T cells. For FACS-analysis, cells were incubated with 2 μg/ml primary antibodies followed by incubation with FITC-labeled secondary antibody as described above.

[2] = target: MST1R on cells (293alpha cells transfected with pcDNA-DEST40 MST1R; endogenous on PC3, T-47D and BxPC-3 cells) (human, UniProt Q04912 25-1400); assay: cell-based or functional assay
[3] = target: T2, recombinant MST1R-Fc fusion protein …; assay: SPR (Biacore 3000), Fab over directly immobilized MST1R-Fc
Method: With reference to Table 1, the affinity of MOR X antibodies was measured by surface plasmon resonance (Biacore) on immobilized recombinant human MST1R. The Biacore studies were performed on directly immobilized antigen.
The kinetic constants kₒₙ and koff were determined with serial dilutions of the respective Fab binding to covalently immobilized MST1R-Fc fusion protein (R&D systems) using the BIAcore 3000 instrument (Biacore). For covalent antigen immobilization standard EDC-NHS amine coupling chemistry was used. For direct coupling of MST1R-Fc fusion protein CM5 sensor chips (Biacore) were coated with ˜600-700 RU in 10 mM acetate buffer, pH 4.5. For the reference flow cell a respective amount of HSA (human serum albumin) was used. Kinetic measurements were done in PBS (136 mM NaCl, 2.7 mM KCl, 10 mM Na₂HPO₄, 1.76 mM KH₂PO₄ pH 7.4) at a flow rate of 20 μl/min using Fab concentration range from 15.6-500 nM. Injection time for each concentration was 1 min, followed by 3 min dissociation phase. For regeneration […] 10 mM HCl was used. All sensograms were globally fitted using BIA evaluation software 3.2 (Biacore).

[4] = target: T2, recombinant MST1R-Fc fusion protein …; assay: Solution Equilibrium Titration (SET, ECL based), Fab
[5] = target: T2, recombinant MST1R-Fc fusion protein …; assay: Solution Equilibrium Titration (SET, ECL based), Fab; SET (Fab), in solution; not Biacore on immobilized antigen

binding result [1]	Reporter assay IC50 (ng/ml); Elk1 luciferase reporter gene assay in the presence of 100 ng/ml MSP [2]	Kd [3]	Kd [4]	Kd [5]	Binder
binds	87.6 ng/mL	–	–	–	MOR07919 (human IgG1) (antibody, V domains shown) VH: QVQLVQSGAEVKKPGESLKISCKGSGYSFTNYWISWVRQMPGKGLEWMGFIYPDDSYTRYSPSFQGQVTISADKSISTAYLQWSSLKASDTAMYYCARFSYRHYLDMDDHWGQGTLVTVSS VL: DIELTQPPSVSVAPGQTARISCSGDSLGSKYVHWYQQKPGQAPVLVIYRDNKRPSGIPERFSGSNSGNTATLTISGTQAEDEADYYCQSYDATEFTYVFGGGTKLTVLG
–	–	0.98 nM	0.27 nM	–	MOR07919 Fab (Fab, V domains shown, carries two C-terminal tags (FLAG and Strep-tag II); also called Fab MOR07919) VH: QVQLVQSGAEVKKPGESLKISCKGSGYSFTNYWISWVRQMPGKGLEWMGFIYPDDSYTRYSPSFQGQVTISADKSISTAYLQWSSLKASDTAMYYCARFSYRHYLDMDDHWGQGTLVTVSS VL: DIELTQPPSVSVAPGQTARISCSGDSLGSKYVHWYQQKPGQAPVLVIYRDNKRPSGIPERFSGSNSGNTATLTISGTQAEDEADYYCQSYDATEFTYVFGGGTKLTVLG

Second part, the binder before the results:

Binder	binding result [1]	Reporter assay IC50 (ng/ml); Elk1 luciferase reporter gene assay in the presence of 100 ng/ml MSP [2]	Kd [3]	Kd [4]	Kd [5]
MOR07923 Fab (Fab, V domains shown, carries two C-terminal tags (FLAG and Strep-tag II); also called Fab MOR07923) VH: QVQLVESGGGLVQPGGSLRLSCAASGFTFNSYSMSWVRQAPGKGLEWVSYISSRSSTTYYADSVKGRFTISRDNSKNTLYLQMNSLRAEDTAVYYCARGYFHGMDYWGQGTLVTVSS VL: DIVLTQSPATLSLSPGERATLSCRASQSVSFDYLGWYQQKPGQAPRLLIYGASNRATGVPARFSGSGSGTDFTLTISSLEPEDFATYYCFQYLIVPFTFGQGTKVEIKR	–	–	0.07 nM	0.02 nM	–
MOR07924 Fab (Fab, V domains shown, carries two C-terminal tags (FLAG and Strep-tag II); also called Fab MOR07924) VH: QVQLVESGGGLVQPGGSLRLSCAASGFTFNSYSMSWVRQAPGKGLEWVSYISSRSSTTYYADSVKGRFTISRDNSKNTLYLQMNSLRAEDTAVYYCARGYFHGMDYWGQGTLVTVSS VL: DIVLTQSPATLSLSPGERATLSCRASQSVSFDYLGWYQQKPGQAPRLLIYGASNRATGVPARFSGSGSGTDFTLTISSLEPEDFATYYCQQYNINPFTFGQGTKVEIKR	–	–	0.2 nM	0.03 nM	–
MOR07925 Fab (Fab, V domains shown, carries two C-terminal tags (FLAG and Strep-tag II); also called Fab MOR07925) VH: QVQLVESGGGLVQPGGSLRLSCAASGFTFNSYSMSWVRQAPGKGLEWVSYISSRSSTTYYADSVKGRFTISRDNSKNTLYLQMNSLRAEDTAVYYCARGYFHGMDYWGQGTLVTVSS VL: DIVLTQSPATLSLSPGERATLSCRASQSVSFDYLGWYQQKPGQAPRLLIYGASNRATGVPARFSGSGSGTDFTLTISSLEPEDFATYYCLQYFNPPHTFGQGTKVEIKR	–	–	0.02 nM	0.01 nM	–
MOR07692 Fab (Fab, V domains shown, carries two C-terminal tags (FLAG and Strep-tag II); also called Fab MOR07692) VH: QVQLVESGGGLVQPGGSLRLSCAASGFTFNSYSMSWVRQAPGKGLEWVSYISSRSSTTYYADSVKGRFTISRDNSKNTLYLQMNSLRAEDTAVYYCARGYFHGMDYWGQGTLVTVSS VL: DIVLTQSPATLSLSPGERATLSCRASQSVSFDYLGWYQQKPGQAPRLLIYGASNRATGVPARFSGSGSGTDFTLTISSLEPEDFATYYCQQYYNMPYTFGQGTKVEIKR	–	–	0.8 nM	–	0.25 nM
MOR07926 Fab (Fab, V domains shown, carries two C-terminal tags (FLAG and Strep-tag II); also called Fab MOR07926) VH: QVQLVESGGGLVQPGGSLRLSCAASGFTFNSYSMSWVRQAPGKGLEWVSYISSRSSTTYYADSVKGRFTISRDNSKNTLYLQMNSLRAEDTAVYYCARGYFHGMDYWGQGTLVTVSS VL: DIVLTQSPATLSLSPGERATLSCRASQSVSFDYLGWYQQKPGQAPRLLIYGASNRATGVPARFSGSGSGTDFTLTISSLEPEDFATYYCFQALIMPFTFGQGTKVEIKR	–	–	0.13 nM	0.04 nM	–
